Drawing on article doi:10.1101/2025.09.05.674548, this text covers stoichiometry N for one substance.

The assay concerns the target T.ni-cell expression optimized human P2X4 construct (P2X4^T.ni) (human) (UniProt Q99571).

By stoichiometry N is commonly meant a count of units in the complex or per binding partner.

In turn, “T.ni-cell expression optimized human P2X4 construct (P2X4^T.ni) (from UniProt Q99571-1 1-388) (receptor)” showed a stoichiometry N of 3.
